The target in assay [1] is gp41-inter (HIV-1; HIV-1 clade A isolate 92UG037.8). The assay can be described thus: fluorescence anisotropy/polarization, FITC-labeled 4E10 Fab, gp41-inter titrated; the concentration read is that of gp41-inter.
Assay [2] shares this target. The assay can be described thus: fluorescence anisotropy/polarization; FITC-4E10 Fab, gp41-inter titrated.
For assay [3] the target is unchanged. Kind of assay: fluorescence anisotropy/polarization, FITC-labeled 2F5 Fab held at 50 nM, gp41-inter titrated; the concentration read is that of gp41-inter.

As a reminder, the EC50 (read off the curve) is the concentration giving half of the maximal effect. For orientation: Kd means the concentration at which binding is half-saturated. Read a low Kd as tighter binding. Take 4E10 Fab: the EC50 (read off the curve) in assay [1] turned out to be 0.02 µM. Moreover, in assay [2], the Kd came to 0.023 µM. As to 2F5 Fab, the half-maximal effective concentration (EC50 (read off the curve)) in assay [3] was 0.01 µM. That is a double-digit nanomolar value.

(Values after US20250177373A1.)
